# Data: paper PMC5771576
# Where two headings read alike, the source gives them in different places.
# Assays:
# [1] = biological target: T1, Cys14 (UniProt position 15, AANWKCNGSES); assay: chemical modification; settings: not stated for the 1 min MMTS incubation (activity assay at 25°C); 100 mM TEA, 10 mM EDTA; ligand-free folded enzyme, 250 ug/mL
# [2] = biological target: T1, Cys14; settings: cited from earlier work
# [3] = biological target: T2, Cys14 (UniProt position 14, AANWKCNGSQQ); settings: cited from earlier work
# [4] = biological target: T2, Cys14; assay: chemical modification; settings: not stated for the 1 min MMTS incubation (activity assay at 25°C); 100 mM TEA, 10 mM EDTA; ligand-free folded enzyme, 250 ug/mL
Substance,pKa [1],pKa [2],pKa [3],pKa [4]
"Triosephosphate isomerase triple mutant TcTIM: L28F, L100A, Q115A (Trypanosoma cruzi; L28F;L100A;Q115A)",10.69 ± 0.01,,,
Triosephosphate isomerase (WT TcTIM) (Trypanosoma cruzi),9.24 ± 0.04,9.27,,
Triosephosphate isomerase (WT TbTIM) (Trypanosoma brucei),,,10.53,10.56 ± 0.22
"Triosephosphate isomerase triple mutant TbTIM: F28L, A100L, A115Q (Trypanosoma brucei; F28L;A100L;A115Q)",,,,9.23 ± 0.03
